Results on seven molecules are retold here after patent US20150299305A1 (Alexion, published 2015).

Substitutions are numbered along the chain they refer to. Numbers in names are those of the source.

Test [1] has as its target T1, mouse C5 (mouse, UniProt P06684 19-674; P06684 679-1680).
T1 construct: also called purified mouse C5
The test is described as follows: SPR, anti-Fc capture, pH 7.4; pH 7.4. On the technique in general: SPR reads the build-up and loss of mass on a sensor chip optically.
Experimental: Briefly, anti-human Fc (KPL, catalogue number: 01-10-20) diluted to 0.1 mg/mL in 10 mM sodium acetate pH 5.0, was immobilized on two flow cells of a CM5 chip for 8 minutes by amine coupling. The antibodies were diluted to 0.25 μg/mL in running buffer (HBS-EP; 0.01 M HEPES pH 7.4, 0.15 M NaCl, 3 mM EDTA, 0.005% v/v Surfactant P20; GE Life Sciences, catalogue number: BR1001-88). The diluted antibody was then injected on one flow cell followed by an injection of 6 nM mouse C5 on both cells. The second flow cell was used as a reference surface. The binding was evaluated at pH 7.4 and pH 6.0. The surface was regenerated each time with 20 mM HCl, 0.01% P20. The data was processed with a 1:1 Langmuir model using BIAevaluation 4.1 software with ‘double referencing’.

Test [2] addresses T2, human complement component C5 (human, UniProt P01031 19-673; P01031 678-1676).
T2 construct: mature; Native purified protein; also called human C5; hC5
Kind of test: SPR, pH 7.4.

Test [3] deals with T2, human complement component C5. Kind of test: SPR, pH 6.0.
Test [4] shares this target. Kind of test: SPR.
For test [5], the target named is T3, Human FcγRIIa (CD32a) (human, UniProt P12318 36-218, limits assumed).
T3 construct: Bought reagent; not shown: 6x histidine tag
T3 sequence (looked up): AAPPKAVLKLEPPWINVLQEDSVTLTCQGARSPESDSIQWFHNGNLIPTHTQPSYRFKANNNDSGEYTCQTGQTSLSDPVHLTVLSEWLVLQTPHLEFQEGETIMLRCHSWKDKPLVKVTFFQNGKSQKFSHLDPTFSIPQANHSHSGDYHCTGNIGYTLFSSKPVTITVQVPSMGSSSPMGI
The test is described as follows: ELISA, multimeric antibody immune complexes on His-tagged FcγRIIa; reference not named (IgG1 control implied). In general terms: ELISA stands for enzyme-linked immunosorbent assay.

In test [6] the target is T4, Human FcγRI (CD64) (human, UniProt P12314 16-288, limits assumed).
T4 construct: Bought reagent; also called FcγR1; not shown: 6x histidine tag
The test is described as follows: SPR, antibody immobilized, monomeric FcγR injected, steady state, pH 7.4; SPR, monomeric FcγR.

Test [7] has as its target T5, Human FcγRIIIb (CD16b) (human, UniProt O75015 17-200, limits assumed).
T5 construct: Bought reagent; not shown: 6x histidine tag
The test is described as above.

Test [8] deals with T6, Human FcγRIIb/c (CD32b/c) (human, UniProt P31994 46-217, limits assumed).
T6 construct: Bought reagent; not shown: 6x histidine tag
T6 sequence (looked up): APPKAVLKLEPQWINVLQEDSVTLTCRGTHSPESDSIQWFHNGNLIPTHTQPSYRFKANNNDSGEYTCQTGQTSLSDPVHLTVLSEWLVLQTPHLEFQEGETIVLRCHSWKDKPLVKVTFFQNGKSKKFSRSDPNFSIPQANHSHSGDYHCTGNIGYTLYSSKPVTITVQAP
Described as above.

In test [9] the target is T7, Human FcγRIIIa (CD16a) (human, UniProt P08637 17-208, limits assumed).
T7 construct: Bought reagent; not shown: 6x histidine tag
The description is as above.

Test [10] deals with complement component C1q (UniProt P02745 23-245; P02746 28-253; P02747 29-245). Kind of test: biolayer interferometry.
In test [11] the target is T3, Human FcγRIIa (CD32a). The test is described as follows: SPR, antibody immobilized, monomeric FcγR injected, steady state, pH 7.4.
Experimental: (§1) A second flow cell was used as a reference surface. Concentrations of FcγRs diluted in running buffer (HBS-EP, pH 7.4) were injected on both cells. The surface was regenerated each cycle with 20 mM HCl, 0.01% P20. The data was analyzed using a steady state affinity model in BIAevaluation 4.1 software (BIAcore AB, Uppsala, Sweden) with ‘double referencing’.
Test [12] concerns the target T8, human neonatal Fc receptor (FcRn) (human, UniProt P55899 24-297; P61769 21-119, limits assumed).
T8 construct: also called hFcRn; human FcRn
The test is described as follows: SPR, F(ab')2 capture, pH 6.0.
Text: The data were processed with a 1:1 Langmuir model using BIAevaluation 4.1 software (BIAcore AB, Uppsala, Sweden) with ‘double referencing’.

Test [13] addresses T5, Human FcγRIIIb (CD16b). The test is described as follows: SPR, antibody immobilized, monomeric FcγR injected, steady state, pH 7.4.
Experimental: as §1
In test [14] the target is T6, Human FcγRIIb/c (CD32b/c). The test is described as above.
Experimental: as §1
Test [15] addresses T7, Human FcγRIIIa (CD16a). Described as above.
Experimental: as §1
In test [16] the target is T4, Human FcγRI (CD64). The test is described as follows: SPR, antibody immobilized, single cycle kinetics, pH 7.4; Table 16 cell under the head KD [µM].
Experimental: The antibody was diluted in 10 mM sodium acetate at pH 5.0 and directly immobilized on one flow cell of a CM5 chip by amine coupling. A second flow cell was used as a reference surface. Concentrations of FcγR1 diluted in running buffer (HBS-EP, pH 7.4) were injected on both cells. This assay required no regeneration. The data was analyzed using a titration kinetics 1:1 model in BIAevaluation 4.1 (Biacore AB, Uppsala, Sweden) software with ‘double referencing’.
The target in test [17] is T9, human hypercalcemia of malignancy peptide, amino acid residues 1-34 (human, UniProt P12272 37-70).
T9 construct: range 1-34; Negative control material on UV-resin spot slides; also called PTHrP 1-34
Kind of test: immunofluorescent staining of UV-resin spot slides.

As a reminder, the Kd is the concentration at which binding is half-saturated. Read a high Kd as a looser complex. In general, koff refers to the first-order rate constant of dissociation. Low readings indicate slow dissociation, high ones fast dissociation. What is called kon is a measure of how fast the partners come together. Higher therefore signals faster complex formation.

T1 sequence (P06684 19-674 limits assumed, chain 1 of 2): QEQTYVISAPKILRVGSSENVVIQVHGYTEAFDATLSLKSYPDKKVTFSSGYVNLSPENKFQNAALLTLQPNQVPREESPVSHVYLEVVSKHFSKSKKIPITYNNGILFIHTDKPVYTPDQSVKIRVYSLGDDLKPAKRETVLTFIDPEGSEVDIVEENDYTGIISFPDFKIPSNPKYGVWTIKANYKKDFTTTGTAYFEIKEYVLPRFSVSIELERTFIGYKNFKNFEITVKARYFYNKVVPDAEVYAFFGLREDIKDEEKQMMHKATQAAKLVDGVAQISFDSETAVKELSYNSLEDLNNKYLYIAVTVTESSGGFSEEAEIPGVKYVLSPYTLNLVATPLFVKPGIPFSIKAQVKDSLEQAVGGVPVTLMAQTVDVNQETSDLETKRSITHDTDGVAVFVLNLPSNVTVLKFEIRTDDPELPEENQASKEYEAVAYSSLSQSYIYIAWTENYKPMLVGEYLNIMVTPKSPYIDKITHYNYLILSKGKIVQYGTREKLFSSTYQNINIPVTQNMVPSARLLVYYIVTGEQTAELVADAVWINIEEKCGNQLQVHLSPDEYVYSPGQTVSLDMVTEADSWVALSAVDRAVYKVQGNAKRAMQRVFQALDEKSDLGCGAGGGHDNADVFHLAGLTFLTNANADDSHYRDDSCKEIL
T1 sequence (P06684 679-1680 limits assumed, chain 2 of 2): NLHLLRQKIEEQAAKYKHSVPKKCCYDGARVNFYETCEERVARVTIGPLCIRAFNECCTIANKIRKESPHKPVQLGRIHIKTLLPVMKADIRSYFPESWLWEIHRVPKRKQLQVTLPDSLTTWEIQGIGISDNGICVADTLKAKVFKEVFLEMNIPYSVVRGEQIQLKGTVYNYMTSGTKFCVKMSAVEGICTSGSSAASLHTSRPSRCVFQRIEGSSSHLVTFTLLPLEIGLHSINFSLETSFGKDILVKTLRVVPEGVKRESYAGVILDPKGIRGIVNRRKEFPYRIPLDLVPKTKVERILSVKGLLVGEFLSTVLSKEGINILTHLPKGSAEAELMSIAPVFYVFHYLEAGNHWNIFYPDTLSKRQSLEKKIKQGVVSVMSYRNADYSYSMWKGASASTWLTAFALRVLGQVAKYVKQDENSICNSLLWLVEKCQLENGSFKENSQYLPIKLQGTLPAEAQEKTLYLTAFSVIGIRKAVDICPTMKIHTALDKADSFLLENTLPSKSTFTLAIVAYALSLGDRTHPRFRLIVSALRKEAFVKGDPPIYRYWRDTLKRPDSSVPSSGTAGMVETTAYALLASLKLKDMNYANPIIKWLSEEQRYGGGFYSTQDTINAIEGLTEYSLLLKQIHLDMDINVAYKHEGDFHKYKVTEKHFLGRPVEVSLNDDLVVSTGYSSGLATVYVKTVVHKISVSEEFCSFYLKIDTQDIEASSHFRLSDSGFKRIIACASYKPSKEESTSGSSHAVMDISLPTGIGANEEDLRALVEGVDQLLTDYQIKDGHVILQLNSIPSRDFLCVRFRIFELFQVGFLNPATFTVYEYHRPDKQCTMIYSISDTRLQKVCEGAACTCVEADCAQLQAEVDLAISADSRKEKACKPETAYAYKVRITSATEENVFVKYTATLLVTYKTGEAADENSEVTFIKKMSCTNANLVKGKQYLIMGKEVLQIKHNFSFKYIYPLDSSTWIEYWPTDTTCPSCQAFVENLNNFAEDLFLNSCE
T4 sequence (P12314 16-288 limits assumed): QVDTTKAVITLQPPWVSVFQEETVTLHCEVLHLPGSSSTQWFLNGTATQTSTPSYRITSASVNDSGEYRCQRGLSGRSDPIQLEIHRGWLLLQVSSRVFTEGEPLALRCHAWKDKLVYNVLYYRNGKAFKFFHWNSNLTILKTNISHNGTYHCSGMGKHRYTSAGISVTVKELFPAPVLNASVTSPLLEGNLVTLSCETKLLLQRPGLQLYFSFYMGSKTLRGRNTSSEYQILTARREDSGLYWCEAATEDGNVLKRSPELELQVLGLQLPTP
T7 sequence (P08637 17-208 limits assumed): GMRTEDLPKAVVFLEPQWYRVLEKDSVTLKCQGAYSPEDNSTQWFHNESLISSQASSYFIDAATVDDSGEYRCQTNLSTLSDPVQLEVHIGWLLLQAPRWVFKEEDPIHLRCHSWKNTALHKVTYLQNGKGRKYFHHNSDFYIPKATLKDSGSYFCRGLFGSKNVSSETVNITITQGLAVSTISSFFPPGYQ
Sequence of complement component C1q (P02745 23-245, chain 1 of 3): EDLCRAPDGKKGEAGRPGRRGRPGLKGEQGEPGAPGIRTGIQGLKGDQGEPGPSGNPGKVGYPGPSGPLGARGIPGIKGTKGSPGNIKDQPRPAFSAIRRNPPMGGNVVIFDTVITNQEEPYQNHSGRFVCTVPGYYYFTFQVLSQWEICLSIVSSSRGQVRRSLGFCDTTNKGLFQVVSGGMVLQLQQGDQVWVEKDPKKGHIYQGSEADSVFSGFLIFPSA
Sequence of complement component C1q (P02746 28-253, chain 2 of 3): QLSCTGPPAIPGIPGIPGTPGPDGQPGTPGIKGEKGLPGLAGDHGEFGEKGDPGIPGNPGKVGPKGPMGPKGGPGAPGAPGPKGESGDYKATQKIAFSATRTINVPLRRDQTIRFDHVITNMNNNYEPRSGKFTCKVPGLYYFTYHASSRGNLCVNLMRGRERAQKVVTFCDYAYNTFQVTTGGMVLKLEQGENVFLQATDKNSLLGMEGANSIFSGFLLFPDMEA
Sequence of complement component C1q (P02747 29-245, chain 3 of 3): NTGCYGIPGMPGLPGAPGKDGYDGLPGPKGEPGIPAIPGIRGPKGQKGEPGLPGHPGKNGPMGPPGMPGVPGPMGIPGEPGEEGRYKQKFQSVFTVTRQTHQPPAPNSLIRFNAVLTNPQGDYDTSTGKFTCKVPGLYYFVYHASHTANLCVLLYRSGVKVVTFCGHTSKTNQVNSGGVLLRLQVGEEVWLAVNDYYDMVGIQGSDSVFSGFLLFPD
T5 sequence (O75015 17-200 limits assumed): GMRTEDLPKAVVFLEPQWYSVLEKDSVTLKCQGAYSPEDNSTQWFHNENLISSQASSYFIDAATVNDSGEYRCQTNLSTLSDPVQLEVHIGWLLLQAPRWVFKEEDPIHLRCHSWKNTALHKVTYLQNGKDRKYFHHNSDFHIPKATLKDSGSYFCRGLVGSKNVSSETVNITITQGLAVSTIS
T8 sequence (P55899 24-297 limits assumed, chain 1 of 2): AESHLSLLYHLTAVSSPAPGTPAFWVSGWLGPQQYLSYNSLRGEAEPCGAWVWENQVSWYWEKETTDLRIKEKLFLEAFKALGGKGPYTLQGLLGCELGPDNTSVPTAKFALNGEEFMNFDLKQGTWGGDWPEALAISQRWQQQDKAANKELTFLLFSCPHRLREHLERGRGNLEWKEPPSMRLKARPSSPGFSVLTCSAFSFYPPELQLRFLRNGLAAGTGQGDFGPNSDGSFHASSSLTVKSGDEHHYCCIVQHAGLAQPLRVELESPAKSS
T8 sequence (P61769 21-119 limits assumed, chain 2 of 2): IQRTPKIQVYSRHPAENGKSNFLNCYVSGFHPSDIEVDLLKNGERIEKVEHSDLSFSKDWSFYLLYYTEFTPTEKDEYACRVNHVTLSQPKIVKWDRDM

B1: BHL006 (antibody, human IgG2, kappa)
heavy: QVQLQQPGAELVRPGTSVKLSCKASGYTFTSSWMHWVKQRPGQGLEWIGVIDPHDSYTNYNQKFKGKATLTVDTSSSTAYMQLSSLTSEDSAVYYCARGGGSSYNRYFDVWGTGTTVTVSSASTKGPSVFPLAPCSRSTSESTAALGCLVKDYFPEPVTVSWNSGALTSGVHTFPAVLQSSGLYSLSSVVTVPSSNFGTQTYTCNVDHKPSNTKVDKTVERKCCVECPPCPAPPVAGPSVFLFPPKPKDTLMISRTPEVTCVVVDVSQEDPEVQFNWYVDGVEVHNAKTKPREEQFNSTYRVVSVLTVLHQDWLNGKEYKCKVSNKGLPSSIEKTISKAKGQPREPQVYTLPPSQEEMTKNQVSLTCLVKGFYPSDIAVEWESNGQPENNYKTTPPVLDSDGSFFLYSRLTVDKSRWQEGNVFSCSVMHEALHNHYTQKSLSLSLGK
light: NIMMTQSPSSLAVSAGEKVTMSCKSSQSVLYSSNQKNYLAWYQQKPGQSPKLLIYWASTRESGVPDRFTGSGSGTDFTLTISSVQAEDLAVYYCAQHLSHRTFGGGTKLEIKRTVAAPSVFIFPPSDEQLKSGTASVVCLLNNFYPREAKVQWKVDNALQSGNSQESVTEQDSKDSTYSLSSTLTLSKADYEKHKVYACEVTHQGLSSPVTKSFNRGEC
notes: BHL011 with three histidine substitutions in the murine variable regions; also called pH-dependent variant of BHL011
In [1], B1 came in with a Kd of 3.49 nM, a dissociation rate constant (koff) of 0.00102 s⁻¹ and an on-rate (kon) of 293000 M⁻¹ s⁻¹.

B2: BHL009 (antibody, human IgG2, kappa)
heavy: B1 heavy with M428L, N434S
light: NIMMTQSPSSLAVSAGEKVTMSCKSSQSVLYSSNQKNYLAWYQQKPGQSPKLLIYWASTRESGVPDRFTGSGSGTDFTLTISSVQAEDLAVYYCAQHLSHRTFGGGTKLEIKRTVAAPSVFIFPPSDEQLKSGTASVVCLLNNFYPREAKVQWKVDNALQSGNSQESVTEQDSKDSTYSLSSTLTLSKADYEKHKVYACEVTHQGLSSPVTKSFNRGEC
notes: BHL006 with M428L, N434S in the human heavy chain constant region
In test [1], B2 came in with a dissociation constant Kd of 4.19 nM, a dissociation rate constant (koff) of 0.00109 s⁻¹ and a kon of 261000 M⁻¹ s⁻¹.

B3: EHL004 (antibody, V domains shown)
VH: QVQLVQSGAEVKKPGASVKVSCKASGYIFSNYWIQWVRQAPGQGLEWMGEILPGSGHTEYTENFKDRVTMTRDTSTSTVYMELSSLRSEDTAVYYCARYFFGSSPNWYFDVWGQGTLVTVSS
VL: DIQMTQSPSSLSASVGDRVTITCGASENIYHALNWYQQKPGKAPKLLIYGATNLADGVPSRFSGSGSGTDFTLTISSLQPEDFATYYCQNVLNTPLTFGQGTKVEIK
notes: The VH cell prints only 'S57H'
Turning to B3, the Kd in [2] was 0.135 nM; in [3], 374 nM. In [4], the “ratio of KD at pH 6.0/pH 7.4” value was 2770.

B4: BNJ441 (antibody, human IgG2, kappa)
heavy: QVQLVQSGAEVKKPGASVKVSCKASGHIFSNYWIQWVRQAPGQGLEWMGEILPGSGHTEYTENFKDRVTMTRDTSTSTVYMELSSLRSEDTAVYYCARYFFGSSPNWYFDVWGQGTLVTVSSASTKGPSVFPLAPCSRSTSESTAALGCLVKDYFPEPVTVSWNSGALTSGVHTFPAVLQSSGLYSLSSVVTVPSSNFGTQTYTCNVDHKPSNTKVDKTVERKCCVECPPCPAPPVAGPSVFLFPPKPKDTLMISRTPEVTCVVVDVSQEDPEVQFNWYVDGVEVHNAKTKPREEQFNSTYRVVSVLTVLHQDWLNGKEYKCKVSNKGLPSSIEKTISKAKGQPREPQVYTLPPSQEEMTKNQVSLTCLVKGFYPSDIAVEWESNGQPENNYKTTPPVLDSDGSFFLYSRLTVDKSRWQEGNVFSCSVLHEALHSHYTQKSLSLSLGK
light: DIQMTQSPSSLSASVGDRVTITCGASENIYGALNWYQQKPGKAPKLLIYGATNLADGVPSRFSGSGSGTDFTLTISSLQPEDFATYYCQNVLNTPLTFGQGTKVEIKRTVAAPSVFIFPPSDEQLKSGTASVVCLLNNFYPREAKVQWKVDNALQSGNSQESVTEQDSKDSTYSLSSTLTLSKADYEKHKVYACEVTHQGLSSPVTKSFNRGEC
notes: IgG2/G4, kappa; also called BNJ441 antibody; BNJ441 engineering batch
In turn, B4 showed a fold weaker association in [5] of 4 fold. Further, the Kd in test [6] is 3.75 µM; in [7], 3.33 µM; in test [8], 8.09 µM; in test [9], 7.23 µM; in [11], 2310 nM. In addition, the binding result in test [10] is given as “no binding”. Further, the “fold increase in affinity compared to eculizumab” value in test [12] was approximately 10 fold.

B5: h5G1.1-IgG1 (antibody)
heavy: not shown
light: B4 light
notes: IgG1 isotype antibody with the same humanized variable region as eculizumab; light chain identical to that of eculizumab and BNJ441; also called h5G1.1-hG1; IgG1 isotype control
In the case of B5, the dissociation constant (Kd) in [13] is 1890 nM; in test [14], 3.06 µM; in [15], 850 nM; in test [11], 800 nM; in test [16], 0.123 nM.

B6: BNJ441-FITC (antibody, human IgG2, kappa)
heavy: B4 heavy
light: B4 light
modifications: fluoresceinated (FITC); sites not stated
notes: also called fluoresceinated BNJ441
Turning to B6, the binding result in test [17] is recorded as “no binding”.

B7: eculizumab (antibody, human IgG2, kappa)
heavy: B4 heavy with H27Y, H57S, L429M, S435N
light: B4 light
notes: Humanized anti-human C5 antibody, hybrid human IgG2/G4 constant region, human kappa light chain; also called Ec293F
B7 registered a fold weaker association in test [5] of 8 fold. Besides, the Kd in [8] stood at 9.84 µM; in test [11], 2580 nM. Further, the binding result in test [10] was “no binding”.
